How the values were obtained:
[1] = molecular target: T1, untagged recombinant human FcRn extracellular domain (neonatal Fc receptor; α-chain with β2-microglobulin) (human, UniProt P55899 24-297; P61769 21-119); test: BLI; biotinylated spike immobilised on streptavidin (SA) biosensors; FcRn in solution, 2-fold dilutions 1,000 to 31.25 nM; 23°C; pH 7.5; 1:1 binding model; Octet Red; details: both partners purified
T1 construct: Human FcRn α-chain (heavy chain), residues 24-297 of UniProt P55899; Human β2-microglobulin, residues 21-119 of UniProt P61769; Untagged; both chains cloned into separate phCMV3 vectors; also called human FcRn ectodomain; FcRn heterodimer; source: Expi293F cells, co-transfected (1:1), purified from the supernatant (human IgG column, SEC Superdex 200 Increase)

[2] = molecular target: T1, untagged recombinant human FcRn …; test: BLI; biotinylated spike immobilised on streptavidin (SA) biosensors; FcRn in solution, 2-fold dilutions 1,000 to 31.25 nM; 23°C; pH 6.0; 1:1 binding model; Octet Red; details: both partners purified

T1 sequence (P55899 24-297, chain 1 of 2): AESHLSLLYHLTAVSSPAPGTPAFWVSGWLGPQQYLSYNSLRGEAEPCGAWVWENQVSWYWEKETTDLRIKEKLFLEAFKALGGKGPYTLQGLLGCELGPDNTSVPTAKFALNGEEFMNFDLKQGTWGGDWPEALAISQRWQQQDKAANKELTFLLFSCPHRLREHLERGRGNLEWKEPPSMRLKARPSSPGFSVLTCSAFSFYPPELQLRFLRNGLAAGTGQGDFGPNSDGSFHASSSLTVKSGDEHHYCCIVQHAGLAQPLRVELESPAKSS
T1 sequence (P61769 21-119, chain 2 of 2): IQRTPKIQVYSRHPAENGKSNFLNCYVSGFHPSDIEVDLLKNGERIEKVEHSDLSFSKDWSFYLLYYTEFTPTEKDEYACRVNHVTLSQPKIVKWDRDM

Row | Binder | Kd [1] | Kd [2]
1 | HAstV-8 capsid spike domain (residues 424-645) (domain or fragment, biotin (biotinylated spike; BirA co-transfected), Human astrovirus serotype 8 capsid protein (ORF2-encoded precursor), spike domain, residues 424-645 of Q9IFX1; Codon-optimised, in pcDNA3.1; also called HAstV8 spike; serotype 8 spike; source: Expi293F cells, co-transfected with BirA plasmid, purified from the supernatant (Ni-IMAC, SEC Superdex 200); not shown: AviTag, C-terminal, kept) SIPEPGEQFRVLLTVGPPMAPNTANSQNWVNKTIVPPENQYTVKIGIDLEHYTTMQGFTPVESVSWYTADFQPSDEPSPIPGLYARVNNTKKADVYGVQQFKSSHTNNRHQITSVFLVRVTTSFQVINYTSYFIRGAESGSNVSNLKIRDQTYHTPLQFTQGKWYLLTSTVMHDGPTSSGWVWMNQELTNNIAYRVDPGMMYLITPPPAASQLYFELHTVLP | 458 nM | 60 nM
2 | HAstV-2 capsid spike domain (residues 428-647) (domain or fragment, biotin (biotinylated spike; BirA co-transfected), Human astrovirus serotype 2 capsid protein (ORF2-encoded precursor), spike domain, residues 428-647 of Q82446.1; Codon-optimised, in pcDNA3.1; also called HAstV2 spike; serotype 2 spike; source: Expi293F cells, co-transfected with BirA plasmid, purified from the supernatant (Ni-IMAC, SEC Superdex 200); not shown: AviTag, C-terminal, kept) SGELRVLLTVGSIMSPNSADRQVWLNKTLTAPGTNSNDNLVKIAHDLGHYLIMQGFMHIKTVEWYTPDFQPSRDPTPIAGMSVMVNITKKADVYFMKQFKNSYTNNRHQITSIFLIKPLADFKVQCYMSYFKRESHDNDGVANLTVRSMTSPETIRFQVGEWYLLTSTTLKENNLPEGWVWDRVELKSDTPYYADQALTYFITPPPVDSQILFEGNTTLP | 898 nM | 42 nM

Source: doi:10.1101/2025.09.13.676064, “Structural Hijacking of FcRn by Human Astrovirus Spikes Reveals Conserved Epitopes for Broad-Spectrum Antivirals” (bioRxiv, 2025)
